Measured values taken from patent publication US20230242902A1, “A HIGHLY ERROR-PRONE […] R[…] FOR TARGETED CONTINUOUS EVOLUTION IN VIVO” (The Regents of the University of California, priority 2017, published 2023).
Substitutions are numbered along the chain they refer to. Names may count otherwise.

B1: G410L: TP-DNAP1 variant (protein)
chain: MDYKDKALNDLRNVYADFDSLPLDFRQILIKDRATLLQKEDVEKKILERQEDAKKYAEYLKQSEIPERISLPNIKRHKGVSISFEETSEDMVLEPRPFIFDGLNIRCFRRETIFSLKNKILNMVKESSSFKNVSRQSVSFMYFKIFNKGKVIASTKSVNIYEDKIDERLEDLCNNFDDVLKKIIDVTYGYESLFVSETYSYVIFYAKSIYFPQPRCVNNWGNNIPNILTFDSFKLFTANKNNVSCIKQCSRFLWQKDFNTLEEMIEYKNGNICIVTPQLHINDVRDIKSFNDIRLYSESPIKTFSVIDNTITYLFYFKEHLGVIFNITKSRHDRRVTKFSPLSKFSDVKNITVCFDIESYFDPEKESNQVNIPFICCASIIYNKVIGNIVDFEGRDCVAQMIEYVVDICLELNISSVELIAHNGGGYDFHYILSSMYNPAAIKNILIRNNSFISFNFAHDGVKFSVKDSYSFLLCSLANASKAFLNEETFKKTDFPHHDLKTADDLYKVYKEWSSVNTEINHVVEKEKLLITSEHIVNFTKNDKSKTLIEWSKDYCRNDVLVLSKVWLEFKNAVEDIFNCELVDQTMTLAGLSYKLFQANMPFDVELRHPNKEDYFNMREALIGGRCISVNGIYKDVLCLDVKSLYPASMAFYDQPYGSFKRVSSRPKDELGIYYVRVTPNRNNKSNFFPIRSHNKITYNNFEESTYIAWYTNVDIDIGLSEGHNIEYIPFDSYGNIGYSWSKKGKIFEKYIKDVLYKLKIKYEKQNNKVKRNVIKIIMNSLWGKFAQKWVNFEYFIKSEDDIDFESEEAYKIWDTDFMLIKKIKESTYSSKPIQNGVFTLSWARYHMKSIWDAGAKEGAECIYSDTDSIFVHKEHFKKNAKFMLNGLKVPIIGSEVGQLELECEFDKLLCAGKKQYMGFYTYFQDGKPCIKEKKRFKGIPSNYIIPELYAHLLSGADKEAKIQFLKFRREWGSVKGYIENKTVKAT
B2: G410M: TP-DNAP1 variant (protein)
chain: B1 chain with L410M
B3: S289K: TP-DNAP1 variant (protein, listed as Kluyveromyces lactis)
chain: B1 chain with S289K, L410G
B4: G410K: TP-DNAP1 variant (protein)
chain: B1 chain with L410K
B5: L640A, M779L (protein)
chain: B1 chain with L410G, L640A, M779L
B6: F652L, I775A (protein)
chain: B1 chain with L410G, F652L, I775A
B7: I775A, K934W (protein)
chain: B1 chain with L410G, I775A, K934W
B8: L640Y, I777A (protein)
chain: B1 chain with L410G, L640Y, I777A
B9: I777A, V872I (protein)
chain: B1 chain with L410G, I777A, V872I
B10: I775A, F968T (protein)
chain: B1 chain with L410G, I775A, F968T
B11: I775A, L900S (protein)
chain: B1 chain with L410G, I775A, L900S
B12: I777K, L909F (protein)
chain: B1 chain with L410G, I777K, L909F
B13: I777A, L900S (protein)
chain: B1 chain with L410G, I777A, L900S
B14: I777K, W790L, K934W (protein)
chain: B1 chain with L410G, I777K, W790L, K934W
B15: L640G, I775A (protein)
chain: B1 chain with L410G, L640G, I775A
B16: Y653L, I775A (protein)
chain: B1 chain with L410G, Y653L, I775A
B17: I777A, K934W (protein)
chain: B1 chain with L410G, I777A, K934W
B18: L640N, I777A (protein)
chain: B1 chain with L410G, L640N, I777A
B19: L645M, I777K (protein)
chain: B1 chain with L410G, L645M, I777K
B20: I777A, F871Y (protein)
chain: B1 chain with L410G, I777A, F871Y
B21: L640G, I777A (protein)
chain: B1 chain with L410G, L640G, I777A
B22: I777K, K934W (protein)
chain: B1 chain with L410G, I777K, K934W
B23: Y653L, I777K (protein)
chain: B1 chain with L410G, Y653L, I777K
B24: I775A, L909F (protein)
chain: B1 chain with L410G, I775A, L909F
B25: Y653L, I777A (protein)
chain: B1 chain with L410G, Y653L, I777A
B26: I777K, V872I (protein)
chain: B1 chain with L410G, I777K, V872I
B27: L645M, M779L (protein)
chain: B1 chain with L410G, L645M, M779L
B28: I777K, F871Y (protein)
chain: B1 chain with L410G, I777K, F871Y
B29: I775A, F871Y (protein)
chain: B1 chain with L410G, I775A, F871Y
B30: I777A, L909F (protein)
chain: B1 chain with L410G, I777A, L909F
B31: L640G, I777K, W814N (protein)
chain: B1 chain with L410G, L640G, I777K, W814N

tested on: p1; assay: p1 copy number by p1-encoded mKate2 fluorescence; type: cell-based, S. cerevisiae; conditions: OR-Y24, measured in triplicate
How it was run: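 p1 copy number came from mKate2 fluorescence of saturated OR-Y24 cultures (triplicates, regrown from 1:10,000), read by flow cytometry and converted through a linear curve calibrated by qPCR (LEU2 against genomic LEU3). For small-scale tests, OD600-normalized plate-reader fluorescence (588/633 nm) was scaled to a w.t. TP-DNAP1 control.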

| Molecule | Mean fold-increase over w.t. (p1 copy number) [fold] |
| --- | --- |
| B1 | 2.57 |
| B2 | 2.55 |
| B3 | 2.02 |
| B4 | 2.53 |

tested on: p1-encoded leu2 (Q180*); assay: Large-scale p1 fluctuation tests of p1-encoded leu2 (Q180*), per-base substitution rate; type: cell-based, S. cerevisiae; conditions: per-base substitution rate, p1-encoded leu2 (Q180*), large-scale fluctuation test
Source text: All three TP-DNAP1 libraries were screened through small scale p1 fluctuation tests in a metastable S. cerevisiae strain, OR-Y24. OR-Y24 contains w.t. p1 and recombinant p1 that lacks w.t. TP-DNAP1, and instead, encodes a standardized fluorescence reporter of p1 copy number (Table 1), and a disabled version of the LEU2 selection marker (leu2 (Q180*)). As described previously (Ravikumar et al., 2014), leu2 (Q180*) contains a C→T mutation at base 538 in LEU2 at a site permissive to all single point mutants that generate missense mutations. Reversion to functional LEU2 can be detected on medium lacking leucine.
Large-scale fluctuation tests of p1-encoded leu2 (Q180*) were performed to precisely determine per-base substitution rates for individually cloned or isolated TP-DNAP1 variants. Large-scale p1 fluctuation tests are performed similarly to small-scale p1 fluctuation tests, with several modifications. First, large-scale p1 fluctuation tests were typically performed with 36-48 replicates. For highly error-prone TP-DNAP1s obtained from later rounds of screening, fewer replicates (3-16) were used, which is sufficient for similar precision (Foster et al., 2006). Second, p1 copy number was determined by the flow cytometry method, described below. Third, cell titers were measured for each fluctuation test to estimate the average number of cells per culture. Cell resuspensions were diluted and plated on solid SC-UH medium, and colony counts were determined after incubation at 30° C. for 2-3 days. Alternatively, cell resuspensions were diluted and subject to an event-count measurement via flow cytometry. Fourth, inoculums of highly error-prone TP-DNAP 1 s occasionally contained pre-existing mutants, despite the 1:10,000 dilution, so mutant frequencies were estimated by plating pre-cultures on solid SC-UHLW, pH 5.8 medium. Plates were incubated for 2-3 days, in parallel with cultures grown for fluctuation tests. Pre-culture mutant titers were counted to estimate the number of replicates in the fluctuation test expected to contain pre-existing mutants (n). Revertants were counted from all replicates of the fluctuation tests, counts were sorted, and n replicates with the highest counts were omitted from calculations.
To calculate per-base substitution rates, fluctuation data were analyzed by the maximum likelihood method, implemented using newton.LD.plating in rSalvador 1.7 (Zheng, 2017). Phenotypic mutation rates were calculated by normalizing to the average number of cells per culture. Phenotypic mutation rates were divided by the measured p1 copy number and by the number of ways leu2 (Q180*) can revert to LEU2 (2.33 for the ochre codon) to yield per-base substitution rates. 95% confidence intervals were similarly scaled by these factors. All data related to large-scale p1 fluctuation tests are fully described in Table 2.

| Molecule | Mutation rate (s.p.b.) |
| --- | --- |
| B5 | 2.79 × 10^−9 s.p.b. |
| B6 | 6.08 × 10^−9 s.p.b. |
| B7 | 3.59 × 10^−8 s.p.b. |
| B8 | 5.70 × 10^−8 s.p.b. |
| B9 | 1.34 × 10^−10 s.p.b. |
| B10 | 7.29 × 10^−8 s.p.b. |
| B11 | 2.53 × 10^−8 s.p.b. |
| B12 | 2.22 × 10^−7 s.p.b. |
| B13 | 1.36 × 10^−7 s.p.b. |
| B14 | 2.02 × 10^−7 s.p.b. |
| B15 | 1.81 × 10^−8 s.p.b. |
| B16 | 9.70 × 10^−9 s.p.b. |
| B17 | 1.86 × 10^−7 s.p.b. |
| B18 | 3.04 × 10^−8 s.p.b. |
| B19 | 9.19 × 10^−9 s.p.b. |
| B20 | 2.57 × 10^−7 s.p.b. |
| B21 | 9.28 × 10^−8 s.p.b. |
| B22 | 2.71 × 10^−7 s.p.b. |
| B23 | 9.59 × 10^−8 s.p.b. |
| B24 | 2.46 × 10^−8 s.p.b. |
| B25 | 2.02 × 10^−8 s.p.b. |
| B26 | 2.59 × 10^−8 s.p.b. |
| B27 | 4.99 × 10^−9 s.p.b. |
| B28 | 1.35 × 10^−6 s.p.b. |
| B29 | 4.73 × 10^−8 s.p.b. |
| B30 | 1.07 × 10^−7 s.p.b. |
| B31 | 2.63 × 10^−7 s.p.b. |
